Results published in PMC9433092, “Closely related type II-C Cas9 orthologs recognize diverse PAMs”.

T1: Nsp2-SmuCas9 (synthetic)
T1 chain: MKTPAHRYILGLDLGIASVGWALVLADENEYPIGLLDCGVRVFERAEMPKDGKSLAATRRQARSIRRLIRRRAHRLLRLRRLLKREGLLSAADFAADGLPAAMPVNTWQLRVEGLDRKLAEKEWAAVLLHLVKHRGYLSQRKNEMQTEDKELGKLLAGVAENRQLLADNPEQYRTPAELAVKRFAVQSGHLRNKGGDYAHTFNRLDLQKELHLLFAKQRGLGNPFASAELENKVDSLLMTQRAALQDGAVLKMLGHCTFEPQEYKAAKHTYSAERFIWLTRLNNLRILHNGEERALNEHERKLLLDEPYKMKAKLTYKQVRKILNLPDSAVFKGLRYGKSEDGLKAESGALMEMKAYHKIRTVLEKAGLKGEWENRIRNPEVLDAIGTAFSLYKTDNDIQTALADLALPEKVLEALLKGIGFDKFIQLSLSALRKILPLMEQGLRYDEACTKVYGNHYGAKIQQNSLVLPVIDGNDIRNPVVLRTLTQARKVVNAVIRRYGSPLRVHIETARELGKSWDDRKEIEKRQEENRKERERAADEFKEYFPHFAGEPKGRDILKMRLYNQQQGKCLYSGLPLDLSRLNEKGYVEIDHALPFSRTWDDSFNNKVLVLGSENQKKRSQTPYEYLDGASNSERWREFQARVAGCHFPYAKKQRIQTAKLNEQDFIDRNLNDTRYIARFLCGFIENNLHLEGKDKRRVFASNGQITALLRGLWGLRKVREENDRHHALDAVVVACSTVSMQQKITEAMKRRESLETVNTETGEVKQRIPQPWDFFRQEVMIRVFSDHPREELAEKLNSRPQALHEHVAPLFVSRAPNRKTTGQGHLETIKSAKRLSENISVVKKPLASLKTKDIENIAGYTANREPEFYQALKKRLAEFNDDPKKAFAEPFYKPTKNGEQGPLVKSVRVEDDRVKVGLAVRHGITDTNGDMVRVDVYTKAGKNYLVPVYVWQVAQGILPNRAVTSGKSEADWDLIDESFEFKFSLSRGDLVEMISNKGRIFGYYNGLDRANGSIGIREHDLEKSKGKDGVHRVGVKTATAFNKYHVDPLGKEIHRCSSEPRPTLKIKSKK

T2: Nsp2Cas9 (Neisseria sp. WF04, UniProt A0A4Y9GBC9)
T2 sequence: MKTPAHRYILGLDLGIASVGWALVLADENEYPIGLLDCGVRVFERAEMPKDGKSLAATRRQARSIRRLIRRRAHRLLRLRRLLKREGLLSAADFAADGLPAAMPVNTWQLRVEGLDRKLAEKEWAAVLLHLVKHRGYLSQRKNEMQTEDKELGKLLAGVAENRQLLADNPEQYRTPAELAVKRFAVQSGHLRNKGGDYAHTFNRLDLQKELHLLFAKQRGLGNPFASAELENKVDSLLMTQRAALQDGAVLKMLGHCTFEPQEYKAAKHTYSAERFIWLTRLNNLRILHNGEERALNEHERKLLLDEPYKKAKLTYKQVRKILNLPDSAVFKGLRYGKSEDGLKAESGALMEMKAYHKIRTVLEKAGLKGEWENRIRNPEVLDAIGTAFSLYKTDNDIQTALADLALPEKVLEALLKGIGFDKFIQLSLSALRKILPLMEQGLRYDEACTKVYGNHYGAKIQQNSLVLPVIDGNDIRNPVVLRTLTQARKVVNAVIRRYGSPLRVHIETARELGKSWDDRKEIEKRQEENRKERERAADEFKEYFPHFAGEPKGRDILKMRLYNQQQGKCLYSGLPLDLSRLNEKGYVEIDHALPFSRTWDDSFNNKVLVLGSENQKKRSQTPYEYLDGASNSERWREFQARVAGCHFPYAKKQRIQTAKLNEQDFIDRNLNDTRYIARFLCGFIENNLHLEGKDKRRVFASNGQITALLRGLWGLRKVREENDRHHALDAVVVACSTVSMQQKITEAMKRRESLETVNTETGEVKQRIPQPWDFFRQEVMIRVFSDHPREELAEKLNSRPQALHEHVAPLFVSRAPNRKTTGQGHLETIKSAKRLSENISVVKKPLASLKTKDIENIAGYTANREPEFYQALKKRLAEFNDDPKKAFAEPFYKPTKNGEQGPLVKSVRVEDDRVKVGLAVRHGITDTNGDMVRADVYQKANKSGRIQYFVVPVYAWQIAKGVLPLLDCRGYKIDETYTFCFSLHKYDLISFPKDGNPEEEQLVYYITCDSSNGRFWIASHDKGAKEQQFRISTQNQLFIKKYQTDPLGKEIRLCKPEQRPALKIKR


Target: T1, Nsp2-SmuCas9
Assay: HEK293T cells
Conditions: tags: NLS and HA tags, kept

Row | Binder | indel frequency [% indels]
1 | AAVS1 TS2 (mixed) RNA: GCAGCGCAAAGUGACAAUGGCCAGUUGUAGCUCCCUUUCUCAUUUCGGAAACGAAAUGAGAACCGUUGCUACAAUAAGGCCGUCUGAAAAGAUGUGCCGCAACGCUCUGCCCCUUAAAGCUUCUGCUUUAAGGGGCAUCGUUUAUUUUUUU DNA 1: CAGCGCAAAGTGACAATGGCCAGGGCCAGG DNA 2: CCTGGCCCTGGCCATTGTCACTTTGCGCTG | 12.4
2 | EMX1 TS9 (mixed) RNA: GUAAGACGAAUUGUAGAAAGGAGGUUGUAGCUCCCUUUCUCAUUUCGGAAACGAAAUGAGAACCGUUGCUACAAUAAGGCCGUCUGAAAAGAUGUGCCGCAACGCUCUGCCCCUUAAAGCUUCUGCUUUAAGGGGCAUCGUUUAUUUUUUU DNA 1: TAAGACGAATTGTAGAAAGGAGAGATCAC DNA 2: GTGATCTCTCCTTTCTACAATTCGTCTTA | 16
3 | AAVS1 TS6 (mixed) RNA: GUGAACUGGAGUGUGACAGCCUGGUUGUAGCUCCCUUUCUCAUUUCGGAAACGAAAUGAGAACCGUUGCUACAAUAAGGCCGUCUGAAAAGAUGUGCCGCAACGCUCUGCCCCUUAAAGCUUCUGCUUUAAGGGGCAUCGUUUAUUUUUUU DNA 1: TGAACTGGAGTGTGACAGCCTGGGGCCCAG DNA 2: CTGGGCCCCAGGCTGTCACACTCCAGTTCA | 6.16
4 | EMX1 TS10 (mixed) RNA: GACUGACUGGAUGUGCACAGCAGGUUGUAGCUCCCUUUCUCAUUUCGGAAACGAAAUGAGAACCGUUGCUACAAUAAGGCCGUCUGAAAAGAUGUGCCGCAACGCUCUGCCCCUUAAAGCUUCUGCUUUAAGGGGCAUCGUUUAUUUUUUU DNA 1: ACTGACTGGATGTGCACAGCAGTGACCG DNA 2: CGGTCACTGCTGTGCACATCCAGTCAGT | 5.48
5 | EMX1 TS14 (mixed) RNA: GCCAAGACGGUGACCAGACUCAAGUUGUAGCUCCCUUUCUCAUUUCGGAAACGAAAUGAGAACCGUUGCUACAAUAAGGCCGUCUGAAAAGAUGUGCCGCAACGCUCUGCCCCUUAAAGCUUCUGCUUUAAGGGGCAUCGUUUAUUUUUUU DNA 1: CCAAGACGGTGACCAGACTCAAGTTACTGA DNA 2: TCAGTAACTTGAGTCTGGTCACCGTCTTGG | 16.5

These binders were tested against T2, Nsp2Cas9 (assay: HEK293T cells). Conditions: tags: NLS and HA tags, kept.

Row | Binder | indel frequency [% indels]
6 | GRIN2B G1 (mixed) RNA: GCCCAUCAAGCUGGGCUCCAAGGGUUGUAGCUCCCUUUCUCAUUUCGGAAACGAAAUGAGAACCGUUGCUACAAUAAGGCCGUCUGAAAAGAUGUGCCGCAACGCUCUGCCCCUUAAAGCUUCUGCUUUAAGGGGCAUCGUUUAUUUUUUU DNA 1: CCCATCAAGCTGGGCTCCAAGGAGGGCCAA DNA 2: TTGGCCCTCCTTGGAGCCCAGCTTGATGGG | 18.6
7 | GRIN2B G5 (mixed) RNA: GUUUACAAUGAGAGACAAUACUGGUUGUAGCUCCCUUUCUCAUUUCGGAAACGAAAUGAGAACCGUUGCUACAAUAAGGCCGUCUGAAAAGAUGUGCCGCAACGCUCUGCCCCUUAAAGCUUCUGCUUUAAGGGGCAUCGUUUAUUUUUUU DNA 1: TTTACAATGAGAGACAATACTGGCATCCAA DNA 2: TTGGATGCCAGTATTGTCTCTCATTGTAAA | 18.4
